Assay [1] has as its target T1, MLO-Y4 cell surface proteins (Mus musculus, UniProt E9Q9D8).
T1 construct: endogenous in cells; host or cells: MLO-Y4
T1 sequence (E9Q9D8 1-996): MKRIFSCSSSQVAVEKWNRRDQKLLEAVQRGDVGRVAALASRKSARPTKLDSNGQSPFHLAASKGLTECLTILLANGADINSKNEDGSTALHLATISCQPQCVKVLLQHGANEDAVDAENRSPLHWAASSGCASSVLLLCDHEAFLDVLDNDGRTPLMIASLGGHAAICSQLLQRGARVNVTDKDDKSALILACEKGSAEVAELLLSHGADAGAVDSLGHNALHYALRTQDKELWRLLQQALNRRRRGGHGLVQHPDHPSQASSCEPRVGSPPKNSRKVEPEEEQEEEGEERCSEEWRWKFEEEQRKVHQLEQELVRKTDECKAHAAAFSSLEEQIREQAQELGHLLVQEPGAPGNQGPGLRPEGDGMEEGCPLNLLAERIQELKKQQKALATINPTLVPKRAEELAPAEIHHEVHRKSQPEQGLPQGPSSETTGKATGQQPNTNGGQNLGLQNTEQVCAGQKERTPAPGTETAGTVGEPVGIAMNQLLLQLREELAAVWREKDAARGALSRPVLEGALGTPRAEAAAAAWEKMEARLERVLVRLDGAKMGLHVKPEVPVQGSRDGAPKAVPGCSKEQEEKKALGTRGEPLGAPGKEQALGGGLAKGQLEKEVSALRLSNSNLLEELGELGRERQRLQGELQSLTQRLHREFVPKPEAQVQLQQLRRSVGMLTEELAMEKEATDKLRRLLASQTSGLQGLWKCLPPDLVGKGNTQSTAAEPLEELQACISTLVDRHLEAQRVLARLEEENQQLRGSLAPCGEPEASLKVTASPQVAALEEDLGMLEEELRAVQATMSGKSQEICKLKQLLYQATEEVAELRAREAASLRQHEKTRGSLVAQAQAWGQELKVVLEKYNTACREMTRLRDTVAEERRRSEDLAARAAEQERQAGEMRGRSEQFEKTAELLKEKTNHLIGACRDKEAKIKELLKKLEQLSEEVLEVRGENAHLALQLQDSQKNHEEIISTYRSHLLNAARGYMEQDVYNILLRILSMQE
In words: Crosslinking/co-immunoprecipitation/mass spectrometry (TMT quantitative proteomics) to identify irisin receptors. The settings on record: co-precipitated protein Ankrd35 (E9Q9D8_MOUSE). It is filed as binding. Put shortly:
(§1)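 Mouse MLO-Y4 cells were switched to serum-free FreeStyle medium for 4 h, chilled, then exposed to 10 nM His-tagged irisin (or adipsin as control) for 20 min. Cells were crosslinked with 1.5 mM DTSSP (30 min, ice), and bound proteins were pulled down on Ni-NTA and eluted with 250 mM imidazole. Eluates were separated by SDS-PAGE, trypsin-digested in gel, TMT 6-plex labelled and quantified by MS3-based LC-MS/MS on an Orbitrap Fusion Lumos.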

The target in assay [2] is T2, MLO-Y4 cell surface proteins (Mus musculus, UniProt Q9D051).
T2 construct: endogenous in cells; host or cells: MLO-Y4
T2 sequence (Q9D051 31-359): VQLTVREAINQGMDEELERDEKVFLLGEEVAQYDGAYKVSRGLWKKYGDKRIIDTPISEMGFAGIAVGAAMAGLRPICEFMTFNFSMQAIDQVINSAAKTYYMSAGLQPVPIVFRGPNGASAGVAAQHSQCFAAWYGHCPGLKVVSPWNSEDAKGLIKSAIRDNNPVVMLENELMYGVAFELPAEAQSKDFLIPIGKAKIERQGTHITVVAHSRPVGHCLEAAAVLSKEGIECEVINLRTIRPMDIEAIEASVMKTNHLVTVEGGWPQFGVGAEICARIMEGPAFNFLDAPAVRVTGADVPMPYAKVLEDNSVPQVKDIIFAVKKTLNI
Described as above. It is filed as binding. The settings on record: co-precipitated protein Pdhb (ODPB_MOUSE). Put shortly: as §1

B1: irisin: secreted cleaved form of FNDC5; recombinant human/mouse irisin with C-terminal his tag produced in HEK293 cells (protein)
chain: DSPSAPVNVTVRHLKANSAVVSWDVLEDEVVIGFAISQQKKDVRMLRFIQEVNTTTRSCALWDLEEDTEYIVHVQAISIQGQSPASEPVLFKTPREAEKMASKNKDEVTMKE
modifications: left off: small tags and cut ends
notes: secreted cleaved form of FNDC5; recombinant human/mouse irisin with C-terminal his tag produced in HEK293 cells
For the molecule B1, in assay [1], the TMT signal-to-noise ratio was found to be 3.32 and the “irisin/adipsin TMT signal-to-noise ratio” value was 0.011. Also, in assay [2], the TMT signal-to-noise ratio worked out at 123.1 and the “irisin/adipsin TMT signal-to-noise ratio” value is 0.337.

Source of the values: US20210063414A1, “METHODS FOR PREVENTING AND/OR TREATING BONE LOSS CONDITIONS BY MODULATING IRISIN” (Dana-Farber Cancer Institute, Inc., priority 2018, published 2021).
